Test results: the DeepSol protein solubility set

Experiment: soluble on expression in E. coli; label from the status in PepcDB or PDB records

Q: With “MSKMKRRTNKPRATESANSSTKSSVLDEPTLVERKQQKKQILKFVQRTLEKMPQGLRAEFVGMRRFNDFEKMKAFKEAQEAGKNRYKDVGCLDNNRVKLEGPWPHEYIHANYVATPTNPKRFICTQAPLEKTCADFWYMCYQDKVEYIFMLCNLLEKGARKCFEYFPSKKGDVMDFEEGGQKISVKCESSVTYSFRSDAKANVTATEIVIEGPGEKTRKTTHYHWNDWPDRGVPAADMAVLELLENARPSKGPIVVHCSAGIGRTGSVVMLEYIMDQLLAGQIIDDGEKILVKIREQRNNSIQTDAQYLFVHQVILNYFRKKKLMEETGVQEAYDAFLEQYKKVVV” as the sequence, how does the “soluble on expression in E. coli” value read?
A: soluble

Q: With “MGSDKIHHHHHHMKHLSLEALRSFSAVIELGSMTLAGERMGRSQPAISLQLKKLEQQLGVELLTRQGSGFALTADGDVLFDYAQRMLALNDQAWAQFEPQQVSGKVRLGITSEFASSLLPKVLGQFAQVYPQVTLQVTSALSKDLLSGLGQQFDIILALREQTNKSDVLIQREELVWVGLPGLLEQPGWPMVVAPEGCIYRRRAEQSLQRAHQPYRITYTNTDFSGLTAALNSGLGITVLAKSTVPKDIPILESFSDNKPLPNPGSVNVIMRLAGGASSAASQLADYLKARI” as the sequence, how does the “soluble on expression in E. coli” value read?
A: not soluble

Q: Which “soluble on expression in E. coli” value does the source give for “SLKTLFEVKQLLKQYGAFIYTRDLDADMQLMQMEMEELHRLGLIERGEFQQAMLVLKREQRAAKMGERAND” here?
A: soluble

Q: With “MPVVIIVEHPRFISSAGPAVKGDTGQIMKYEKTKEFPHTKKFKAICYGAMMHPKRACKLTEQPTMTKQKRKNTFLTAYYRAKEICMIYSHIFINKLPKQKLTFKQFYVKK” as the sequence, how does the “soluble on expression in E. coli” value read?
A: not soluble

Q: With “MDHIVLTHVFNGGSAESAALCPQDKIIALDGYACTDFAAQWARYHVRAKINIHFFRAGILRQTVLTVQATALEHHHHHH” as the sequence, how does the “soluble on expression in E. coli” value read?
A: not soluble

Q: With “LMVGGLLLAAASNNVQAEALQPDPAWQQGKLDNGFSWQLLATPQRPSDRIELRLIVNTGSLSENTQEVGFAHLLPRLALMSSASFTPAQLQSLWQQGIDNERPLPPAITSYDFTLYSLSLPNNRPDLLKDALAWLSDTAGNLAVSEQTVNAALNTATDPIATFPQNIQEPWWRYRLKGSSLIGHDPGQPVTQPVDVEKLKQFYQQWYTPDAMTLYVVGNVDSRSIAAQISKAFSELKGKRTAPAAVATLAPLPPEPVSLMNEQAAQDTLSLMWDTPWHPIQDSMALSRYWRSDLAREALFWHIKQVLEKNNQKNLKLGFDCRVQYQRAQCAIHLNTPVENLTANMTFVARELAALRANGLSQAEFDALMTQKNDQLSKLFATYARTDTDILMSQRLRSQQSGVVDIAPEQYQKLRQAFLSGLTLAELNRELKQQLSQDTTLVLMQPKGEPEVNVKALQEIYNGIMAPQTVAEEEVAPAEAVETAPVMPTTAQ” as the sequence, how does the “soluble on expression in E. coli” value read?
A: soluble

Q: For “MPMISCDMAYGRTDEQKRALSAGLLRVISEATGEPRENIFFVIREGSGINFVEHGEHLPDYVPGNANDKALIAKLK”, which “soluble on expression in E. coli” value is on record?
A: soluble

Q: Which “soluble on expression in E. coli” value does the source give for “MFIGYKSSKSKKILIMNSKGGAGKSSLTMAMARLFSSKNIKTELIDLDPQNTSYFWGGNNKEIRTQTFLTSSRVPFSLALKLELDTELTIIDTPSNFNKFELDKYLSLADKIILPLQASPIDLHSILGFIKNLIASPVYKKRNIPVCFVITRYKGRVGDLELMHRVLNKLKYPIIGVMSESDAYQSLFIDEDVKVFQYLDKNLWVEIERWINI” here?
A: not soluble

Q: For “MKNAVHFGAGNIGRGFIGKLLADAEVEVTFADVDVPLVDQLSHKQEYKVKVVGTECKIDTVTHVTAVNSASEDVIDRIVKTDLVTTAVGPNVLDIIAKTIAKGIAKRFEAGNDAPLNIIACENMVRGTTHLKGEVYKHLDKSLHAKADELVGFVDSAVDRIVPPAEAANDDPLEVTVESFSEWIVDEQQFKGDIPNIAGMEKTNNLMAFVERKLFTLNTGHCITAYLGCLKGHRTIREAIEDPNIHAEVKQAMQESGEVLIRRYGFDHDMHNAYIEKILGRFANPYLVDEVDRVGRQPIRKLGANDRLVKPLLGTIEYGTENQTLLKGIAAALKYTNDTDPQAVELQTSLKEVGVTKTLAKYTGLAEDSDEVAQIETLYNQL”, which “soluble on expression in E. coli” value is on record?
A: not soluble

Q: With “MGSDKIHHHHHHMSQSKPLFPLNAWYAVAWDHEVKHALTPRKLCNLDVVLYRTTAGAVVALEDACWHRLVPLSMGKLRGDDVVCGYHGLVYNAQGRCVHMPSQETINPSACVRGFPVAEKHRYVWVWPGDPAQADVALIPDLHWSHDPAWAGDGRTIHAKCDYRLVLDNLMDLTHETFVHGSSIGQDEVAEAPFEVVHGDRTVTVSRWMHNIDPPPFWAGQIARHLNYHGKVDRWQIIHFEAPGTIAIDVGVAITGTGAPQGDRSQGVNGFVLNTITPETDTTCHYFWAFMRNYALHDQSLTTLTREGVTGVFGEDEAVLEAQQRAIEAHPDHAFYNLNVDAGGMWARRVIDRLIAREQRAGDLSLRMVG” as the sequence, how does the “soluble on expression in E. coli” value read?
A: not soluble

Q: For “MAFGVLALVHTACENAKYDVIDNLVYINEASTSKTKELTLTEGTTRTSLTVRLVNIINQTIKANLFIDESVLDAYNKKNETNYKMPPKEYISFPESVTIEAGSVSADPVNVDIKSFEAEGGAQYAIPISIKNVEGGIEKSESSSSFLLVLVKPLKQAVPKLTWYNGMHAAPEGAWGLALPNYTLEWWSKVTSKSGNGGYTKNNQAIINSGGLGTELYIRFGDLIYSENGSYKNNFLQVKTMGSQFDTGDPTKGKGLEAQKWYHFAVSYDAASGTTLLYQNGTVVASLSSSIGQPMNIDQFQMISSGEEYFPDFCEMCQVRFWKVTRTVNQIKKSMYTEVDYTDKNLLLYLPMNEGEGATILHDVTGNGHDVEIGNSNLGNENRQKVTWETYSFAQ”, which “soluble on expression in E. coli” value is on record?
A: not soluble

Q: Which “soluble on expression in E. coli” value does the source give for “MSLTQHTLWLLRFTYKQLKEKLTVSDSKKLFHEQFPYVIPGLYKRIVDEMLVELNLLNHQNEFIQDDLFCVGLTETFKELTKGYKPEEHLRVLFESLCNSSNFEPKKIKEASKKTLEVYKDKSLKEISILLKQKSDSNLYSSRIMNLGIYLIIANATDFKDIKDPEKNKIISDIINKLNLSFNKAEKDIGIYKSSILKMEQAKELLQEAKIKDKKEKEGHHHHHH” here?
A: not soluble

Q: With “MGSDKIHHHHHHMTQTQPKFLTIYNTLYKEIQIGKYPSGHALPTEKELCARFDVSRMTLRQAIKLLAEDGIVESTRGKGHFVIPQTNAQHASSMDQFKHPLDQILLARVSMSSINYRVDLESEYTNHLFANHPSAVIAMERYYQKKDNHSKQADAFCFTFIPLNVIDTFKVNTQNEDDMKTFVEQTIYSNAYQSDLKMSITKAPRFKNHSHVFDGDTHCWLIIETLYAQTPYPIMINKWYIPQEISELTLTRIRQSDY” as the sequence, how does the “soluble on expression in E. coli” value read?
A: not soluble

Q: With “SDDKAFTKELDQWVEQLNECKQLNENQVRTLCEKAKEILTKESNVQEVRCPVTVCGDVHGQFHDLMELFRIGGKSPDTNYLFMGDYVDRGYYSVETVTLLVALKVRYPERITILRGNHESRQITQVYGFYDECLRKYGNANVWKYFTDLFDYLPLTALVDGQIFCLHGGLSPSIDTLDHISPRGAGYTFGQDISETFNHANGLTLVSRAHQLVMEGYNWCHDRNVVTIFSAPNYCYRCGNQAAIMELDDTLKYSFLQFDPAPRRGEPHVTRRTPDYFL” as the sequence, how does the “soluble on expression in E. coli” value read?
A: soluble

Q: With “MSEKTYELATFAGGCFWCMVKPFDELPDIHKVLSGYAGGHVENPTYEQVKAGTSGHLEVVQITFDPSIFPYEKLLNLYWPQIDPTDDGGQFFDRGPSYRTAIFYHTETQKELAEKSKHSLAESGMFKDPIVTEIRPAAPFYEAEEYHQHFYKKNPEKYATEQKESGREDFIKENWQKK” as the sequence, how does the “soluble on expression in E. coli” value read?
A: not soluble

Q: For “GHELSAIIPRSSWLAQKPMDEPLPLQLPVKYVVILHTATESSEKRAINVRLIRDMQSFHIESRGWNDIAYNFLVGCDGNIYEGRGWKTVGAHTLGYNRISLGISFIGCFMKELPTADALNMCRNLLARGVEDGHISTDYRLICHCQCNSTESPGRRLYEEIQTWPHFYNIEEEEQ”, which “soluble on expression in E. coli” value is on record?
A: soluble

Q: Which “soluble on expression in E. coli” value does the source give for “GSSALLDTDEVGSELDDSDDDYLISEGEEDGPDENLMLCLYDKVTRTKARWKCSLKDGVVTINRNDYTFQKAQVEAEWV” here?
A: soluble

Q: Which “soluble on expression in E. coli” value does the source give for “MPEGPEVALTADILEKYFKGKTLEYIDFISGRYSKSEPEGYDDFIANLPLKVSNVDTKGKFLWFELFDPNDKSNKWYIWNTFGLTGMWSLFEAKYTRAVLSFDNELMAYFSDMRNFGTFKFSNSEKELKRKLNELGPDFLKNDDIDISKIKKYKQPIVALLMDQKKIGSGLGNYLVAEILYRAKIDPHKLGSNLTDQEIENLWYWIKYETKLAYDSNHIGYMVNLENESSKIGRKNYHPNIHPTEKEFDFLVYRKKKDPNGNKVIADKIIGSGKNKRTTYWAPAIQKLEHHHHHH” here?
A: soluble

Q: With “MVDKREEVMHVAMFPWLAMGHLLPFLRLSKLLAQKGHKISFISTPRNIERLPKLQSNLASSITFVSFPLPPISGLPPSSESSMDVPYNKQQSLKAAFDLLQPPLKEFLRRSSPDWIIYDYASHWLPSIAAELGISKAFFSLFNAATLCFMGPSSSLIEEIRSTPEDFTVVPPWVPFKSNIVFRYHEVTRYVEKTEEDVTGVSDSVRFGYSIDESDAVFVRSCPEFEPEWFGLLKDLYRKPVFPIGFLPPVIEDDDAVDTTWVRIKKWLDKQRLNSVVYVSLGTEASLRHEEVTELALGLEKSETPFFWVLRNEPKIPDGFKTRVKGRGMVHVGWVPQVKILSHESVGGFLTHCGWNSVVEGLGFGKVPIFFPVLNEQGLNTRLLHGKGLGVEVSRDERDGSFDSDSVADSIRLVMIDDAGEEIRAKAKVMKDLFGNMDENIRYVDELVRFMRSKGSSSSS” as the sequence, how does the “soluble on expression in E. coli” value read?
A: not soluble

Q: For “MESELSGISNENQISFFGFSAGSFSDSIFNIYVDAWEEVCSNEFKNSLKKLTDKDRLCLLSFPFSDKTNEKAFKMMKRFCVTNIFRIPASVTLPECKKMLIASAKEHKSLKQVEKEFDEKLEKIRQLRIKLAKRHDELEAVNNAIEVLHVMEKSQEQLISQKRIVPDSPTRMSPV”, which “soluble on expression in E. coli” value is on record?
A: not soluble

Q: Which “soluble on expression in E. coli” value does the source give for “CPEIEAQGNECLKEYGGDVGFGFCAPRIFPTICYTRCRENKGAKGGRCRWGQGSNVKCLCDFCGDTPQ” here?
A: soluble

Q: For “EMEPEEERIRYSQRLRGTMRRRYEDDGISDDEIEGKRTFDLEEKLHTNKYNANFVTFMEGKDFNVEYIQRGGLRDPLIFKNSDGLGIKMPDPDFTVNDVKMCVGSRRMVDVMDVNTQKGIEMTMAQWTRYYETPEEEREKLYNVISLEFSHTRLENMVQRPSTVDFIDWVDNMWPRHLKESQTESTNAILEMQYPKVQKYCLMSVRGCYTDFHVDFGGTSVWYHIHQGGKVFWLIPPTAHNLELYENWLLSGKQGDIFLGDRVSDCQRIELKQGYTFVIPSGWIHAVYTPTDTLVFGGNFLHSFNIPMQLKIYNIEDRTRVPNKFRYPFYYEMCWYVLERYVYCITNRSHLTKEFQKESLSMDLELNGLESGNGDEEAVDREPRRLSSRRSVLTSPVANGVNLDYDGLGKTCRSLPSLKKTLAGDSSSDCSRGSHNGQVWDPQCAPRKDRQVHLTHFELEGLRCLVDKLESLPLHKKCVPTGIEDEDALIADVKILLEELANSDPKLALTGVPIVQWPKRDKLKFPTRPKVRVPTIPITKPHTMKPAPRLTPVRPAAASPIVSGARRRRVRCRKCKACVQGECGVCHYCRDMKKFGGPGRMKQSCVLRQCLAPRLPHSVTCSLCGEVDQNEETQDFEKKLMECCICNEIVHPGCLQMDGEGLLNEELPNCWECPKCYQEDSSEKAQKRKMEESDEEAVQAKVLRPLRSCDEPLTPPPHSPTSMLQLIHDPVSPRGMVTRSSPGAGPSDHHSASRDERFKRRQLLRLQATERTMVREKENNPSGKKELSEVEKAKIRGSYLTVTLQRPTKELHGTSIVPKLQAITASSANLRHSPRVLVQHCPARTPQRGDEEGLGGEEEEEEEEEEEDDSAEEGGAARLNGRGSWAQDGDESWMQREVWMSVFRYLSRRELCECMRVCKTWYKWCCDKRLWTKIDLSRCKAIVPQALSGIIKRQPVSLDLSWTNISKKQLTWLVNRLPGLKDLLLAGCSWSAVSALSTSSCPLLRTLDLRWAVGIKDPQIRDLLTPPADKPGQDNRSKLRNMTDFRLAGLDITDATLRLIIRHMPLLSRLDLSHCSHLTDQSSNLLTAVGSSTRYSLTELNMAGCNKLTDQTLIYLRRIANVTLIDLRGCKQITRKACEHFISDLSINSLYCLSDEKLIQKIS”, which “soluble on expression in E. coli” value is on record?
A: soluble
